For data set [1], the target named is T1, Gbn (SCO1839) (Streptomyces coelicolor A3(2) M145, UniProt Q9RJ29 1-73).
T1 sequence: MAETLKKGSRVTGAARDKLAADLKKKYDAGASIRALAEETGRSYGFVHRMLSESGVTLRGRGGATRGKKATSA
In words: EMSA; half-binding concentration reduced by more than one-third versus N2; 5 nM DNA; EMSA: 10 mM Tris-HCl pH 7.9, 0.1 mM EDTA, 50 mM KCl, 30 C 15 min, 5% PAGE, ethidium bromide; TPM: 10 mM Tris-HCl pH 8.0, 0.1 mM EDTA, 50 mM KCl, 0.5% acetylated BSA. Conditions: protein: recombinant; tags: His6 (pET28a, pGWS1286; printed as both His6-Gbn and Gbn-His6); blunt. A general note: Mobility shift assays separate free from complexed probe on a gel.

For data set [2], the target named is T1, Gbn (SCO1839). In words: EMSA; three binding events seen for four motifs; 7.5 nM DNA; EMSA: 10 mM Tris-HCl pH 7.9, 0.1 mM EDTA, 50 mM KCl, 30 C 15 min, 5% PAGE, ethidium bromide; TPM: 10 mM Tris-HCl pH 8.0, 0.1 mM EDTA, 50 mM KCl, 0.5% acetylated BSA. Conditions: protein: recombinant; tags: His6 (pET28a, pGWS1286; printed as both His6-Gbn and Gbn-His6); blunt.

B1: p1839_50Single_strong (++, GATCWT) (dsDNA)
DNA 1: CTCGACGCCGTCCGGAAGCAGAATGATCCGTTCCGGCTGGAGCGCCTCGA
DNA 2: TCGAGGCGCTCCAGCCGGAACGGATCATTCTGCTTCCGGACGGCGTCGAG
With B1, in data set [1], the binding result is listed as “binds”.

B2: p1839_50Quadruple (dsDNA)
DNA 1: GATGGCGGATCACGGATCGGCCGAATGATCCATAACCAGTGGATCATCCA
DNA 2: TGGATGATCCACTGGTTATGGATCATTCGGCCGATCCGTGATCCGCCATC
Consider B2, for which, in data set [2], the binding result is recorded as “binds”.

(Values after paper PMC9239103, “System-Wide Analysis of the GATC-Binding Nucleoid-Associated Protein Gbn and Its Impact on Streptomyces Development”.)
